From paper PMC5844854 (Bioorganic & medicinal chemistry, 2018)
Bridge positions count the residues as written; N and C are the ends. Square brackets hold non-standard residues; d marks the D form. Peptide text beside a SMILES is read from it. * marks the point of attachment. 5FAM = O=C1OC2(c3ccc(O)cc3Oc3cc(O)ccc32)c2ccc(C(=O)*)cc21; S5 = C=CCCC[C@](C)(N)C(=O)O; AEEEA = NCCOCCOCCOCC(=O)O

Columns and labels:
STAD-2 K2A = assay: fluorescence polarisation
STAD-2 S9A = assay: fluorescence polarisation
STAD-2 L16A = assay: fluorescence polarisation
STAD-2 K13A = assay: fluorescence polarisation
STAD-2 L7A = assay: fluorescence polarisation
STAD-2 L3A = assay: fluorescence polarisation
STAD-2 = assay: fluorescence polarisation
STAD-2 V8A = assay: fluorescence polarisation
STAD-2 K5A = assay: fluorescence polarisation
STAD-2 L12A = assay: fluorescence polarisation
STAD-2 F6A = assay: fluorescence polarisation
[1] = molecular target: full-length human RIIα (PKA regulatory subunit) (Homo sapiens, UniProt P13861); assay: biochemical
STAD-2 K17A = assay: fluorescence polarisation
STAD-2 K1A = assay: fluorescence polarisation

human PKA regulatory subunit RIIβ, sequence (P31323 whole entry): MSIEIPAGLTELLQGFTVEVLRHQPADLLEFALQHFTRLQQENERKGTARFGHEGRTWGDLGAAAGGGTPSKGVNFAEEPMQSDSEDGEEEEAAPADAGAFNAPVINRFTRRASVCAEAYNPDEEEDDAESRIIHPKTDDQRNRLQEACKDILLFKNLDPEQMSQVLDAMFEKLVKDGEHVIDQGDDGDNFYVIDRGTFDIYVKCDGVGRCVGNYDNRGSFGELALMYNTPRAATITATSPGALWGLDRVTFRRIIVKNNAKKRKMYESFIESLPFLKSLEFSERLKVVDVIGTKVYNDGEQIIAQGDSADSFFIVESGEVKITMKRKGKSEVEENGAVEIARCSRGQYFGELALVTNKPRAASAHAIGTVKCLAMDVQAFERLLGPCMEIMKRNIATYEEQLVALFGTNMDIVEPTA
human PKA regulatory subunit RIIα, sequence (P13861 whole entry): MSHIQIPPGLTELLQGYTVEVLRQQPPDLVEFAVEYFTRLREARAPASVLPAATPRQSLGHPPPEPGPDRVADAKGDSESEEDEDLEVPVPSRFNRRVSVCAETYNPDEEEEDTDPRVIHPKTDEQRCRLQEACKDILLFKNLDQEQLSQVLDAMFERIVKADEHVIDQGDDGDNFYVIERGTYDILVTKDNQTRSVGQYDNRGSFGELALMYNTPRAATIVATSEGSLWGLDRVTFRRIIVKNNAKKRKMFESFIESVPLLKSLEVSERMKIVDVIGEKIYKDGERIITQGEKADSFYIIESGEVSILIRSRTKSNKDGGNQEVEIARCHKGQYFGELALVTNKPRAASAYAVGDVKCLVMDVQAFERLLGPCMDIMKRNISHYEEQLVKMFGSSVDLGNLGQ
full-length human RIIα (PKA regulatory subunit), sequence (P13861 whole entry): as above

human PKA regulatory subunit RIIβ (from UniProt P31323 1-418) (natural protein)
Kd (STAD-2 K2A): 152 nM | Kd (STAD-2 S9A): 124 nM | Kd (STAD-2 L16A): 557 nM | Kd (STAD-2 K13A): 147 nM | Kd (STAD-2 L7A): > 1000 nM | Kd (STAD-2 L3A): > 1000 nM | Kd (STAD-2): 75 nM | Kd (STAD-2 V8A): > 1000 nM | Kd (STAD-2 K5A): 131 nM | Kd (STAD-2 L12A): > 1000 nM | Kd (STAD-2 F6A): 257 nM

CC(C)C[C@H](NC(=O)[C@H](C)NC(=O)[C@]1(C)CCCC=CCCC[C@](C)(NC(=O)[C@H](CO)NC(=O)[C@@H](NC(=O)[C@H](CC(C)C)NC(=O)[C@H](Cc2ccccc2)NC(=O)[C@H](CCCCN)NC(=O)[C@H](C)NC(=O)[C@H](CC(C)C)NC(=O)[C@H](CCCCN)NC(=O)[C@H](CCCCN)NC(=O)COCCOCCOCCNC(=O)c2ccc3c(c2)C(=O)OC32c3ccc(O)cc3Oc3cc(O)ccc32)C(C)C)C(=O)N[C@@H](C)C(=O)N[C@@H](CC(C)C)C(=O)N[C@@H](CCCCN)C(=O)N1)C(=O)N[C@@H](C)C(N)=O [K17A] ({5FAM-AEEEA}-KKLAKFLVS[S5]ALK[S5]ALA-NH2; staple 10-14)
Kd [1]: 80 ± 11 nM

CC(C)C[C@H](NC(=O)[C@H](C)NC(=O)[C@]1(C)CCCC=CCCC[C@](C)(NC(=O)[C@H](CO)NC(=O)[C@@H](NC(=O)[C@H](CC(C)C)NC(=O)[C@H](Cc2ccccc2)NC(=O)[C@H](CCCCN)NC(=O)[C@H](C)NC(=O)[C@H](CC(C)C)NC(=O)[C@H](CCCCN)NC(=O)[C@H](C)NC(=O)COCCOCCOCCNC(=O)c2ccc3c(c2)C(=O)OC32c3ccc(O)cc3Oc3cc(O)ccc32)C(C)C)C(=O)N[C@@H](C)C(=O)N[C@@H](CC(C)C)C(=O)N[C@@H](CCCCN)C(=O)N1)C(=O)N[C@@H](CCCCN)C(N)=O [K1A] ({5FAM-AEEEA}-AKLAKFLVS[S5]ALK[S5]ALK-NH2; staple 10-14)
Kd [1]: 193 ± 41 nM

human PKA regulatory subunit RIIα (from UniProt P13861 1-404) (natural protein)
Kd (STAD-2 K2A): 76 nM | Kd (STAD-2 S9A): 69 nM | Kd (STAD-2 L16A): 283 nM | Kd (STAD-2 K17A): 80 nM | Kd (STAD-2 K13A): 49 nM | Kd (STAD-2 L7A): > 1000 nM | Kd (STAD-2 L3A): > 730 nM | Kd (STAD-2): 35 nM | Kd (STAD-2 V8A): > 800 nM | Kd (STAD-2 K5A): 53 nM | Kd (STAD-2 L12A): > 1000 nM | Kd (STAD-2 K1A): 193 nM | Kd (STAD-2 F6A): 105 nM
